Reference: the supplement of paper PMC12764529
± gives the half width of the 95% confidence interval.

What was measured:
[1] = folding stability dG unfold (combined trypsin and chymotrypsin); higher = more stable
Method in brief: (§1)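 Designed mini-proteins with no cysteine and under 80 residues were kept only if AlphaFold2 dimer inter-PAE was above 15. In a PA-tagged cDNA display construct, they were digested with trypsin and chymotrypsin and then sequenced. K50 was inferred by Bayesian fitting of counts, and unfolding free energy was derived per protease or combined against a sequence-predicted unfolded-state K50 and a shared folded-state K50.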

[2] = folding stability dG unfold from trypsin proteolysis; higher = more stable
Method in brief: as §1

[3] = folding stability dG unfold from chymotrypsin proteolysis; higher = more stable
Method in brief: as §1

| Sequence | folding stability dG unfold [1] [kcal/mol] | folding stability dG unfold [2] [kcal/mol] | folding stability dG unfold [3] [kcal/mol] |
| --- | --- | --- | --- |
| SAGGSIEELAEELARRFAEENGAAEVRVEVEGLPDNTVLVRVYVRGPDGELLGVVDALIPVPEDELSAGGSA [r2_153_TrMRF] | 2.05 ± 0.085 | 1.94 ± 0.045 | 2.09 ± 0.062 |
| SAGGSIEEVIEELIKSGKPPSKEEIKEAIKKAIEEEVKKKGKKIPKVNIKKITSNPETGKIPIEIIISAGGS [r16_365_JUSTAS] | 0.356 ± 0.17 | -0.757 ± 0.41 | 0.784 ± 0.056 |
| SAGGSIKIDEIEPDPPGDRVKVKMDIPVPMYDPNGKPKEPMPIKITAEARVDPENGELAINMDIEMSAGGSA [r2_220_TrROS] | 1.67 ± 0.53 | 2.73 ± 0.41 | 1.4 ± 0.33 |
| SAGGSISVEELKKLPPDSTLTYTEGDKLYEIKVYKNPEGALSIEITEIDPNTGSPVKTEIVNLEELLSAGGS [r16_763_JUSTAS] | 3.21 ± 0.12 | 1.63 ± 0.13 | 3.53 ± 0.075 |
| SAGGSITVSEDESNLTFTIPVPPTEPLTPEEVRAAAEALLAELGPDIRVLSIERLPDGGYRVEAEVRSAGGS [r8_103_JUSTAS] | 1.87 ± 0.037 | 2.08 ± 0.033 | 1.6 ± 0.043 |
| SAGGSIVDRIRKILKEYGYTAQVERNGDGITIVVQFNKEQRKKIVSEIQEDFGYPIKIEVMPPGQELSAGGS [r16_514_TrROS] | 2.03 ± 0.11 | 1.97 ± 0.06 | 1.94 ± 0.027 |
| SAGGSKIIITYDKEKNVITIKVEKNGKLLEITIEVKSKEDLEEALKKAEELAKELEKKGYKVEIIPSAGGSA [r2_118_TrROS_Hall] | 2.15 ± 0.2 | 1.95 ± 0.12 | 2.31 ± 0.07 |
| SAGGSKIRIVEIQPSNGFTIKIRPKNGKKMTIPIPPDDMNDPENWERFARTLAKWFEKNGVKDIEISAGGSA [r2_249_TrROS] | 0.538 ± 0.26 | 0.312 ± 0.17 | 0.615 ± 0.37 |
| SAGGSKKKIYKIKIKIEVINEETGEKKTVEIEIEAESLEEALAAIAKALLPEGQTVKIVDIEIEEVSAGGSA [r2_320_TrROS_Hall] | 3.73 ± 0.085 | 3.42 ± 0.069 | 3.89 ± 0.079 |
| SAGGSKLKNLKSKPFPITFENGGKVTLNVVNIPKSSKPVVNITVIEPNSGKKKTFTVPLEEAKNLLSAGGSA [r2_366_TrMRF] | 0.869 ± 0.089 | 0.394 ± 0.071 | 1.16 ± 0.12 |
| SAGGSKPEKIKVVSVEVFPDGLIKVKVKTESGYEATALIVKLPGDKYLIFLTIPANGKPFVFELPASAGGSA [r2_361_TrMRF] | 2.54 ± 0.072 | 2.36 ± 0.059 | 2.61 ± 0.031 |
| SAGGSKTVTLTVTVEVNGKTFTVTVTLTYDEETNKLTITVEISAKSEEERERARELVEKLLKELLSSAGGSA [r2_259_TrROS_Hall] | 4.79 ± 0.13 | 3.83 ± 0.12 | 4.95 ± 0.094 |
| SAGGSKTVTVTVRIKVTNEDGEELTVTARLTYNEETGEVTVEIEMSPEALERLRELFPDVKIEIYPSAGGSA [r2_409_TrROS_Hall] | 3.9 ± 0.32 | 4.08 ± 0.22 | 3.09 ± 0.13 |
| SAGGSKVTLEVNEDGTVTLTVTRPDGKKVTLTITKNEDGTYTIRDEETGKTITVPAGMSIEELLKASAGGSA [r2_338_TrROS_Hall] | 5.09 ± 0.1 | 3.69 ± 0.12 | 5.17 ± 0.14 |
| SAGGSLKIKIRNPDGMPFKIDVVRYPNHIRIKFKFGNKPVAFMIDPESDTINFRIPGWPFQIEIEPSAGGSA [r2_194_TrROS] | 3.26 ± 0.15 | 2.96 ± 0.096 | 3.39 ± 0.092 |
| SAGGSLPELLKLAKELAKKLGAKDLTAKESGEITIKSPENITITVSTEDGEPVVTINNTSTSSTIPLSAGGS [r16_296_JUSTAS] | -0.18 ± 0.26 | -0.36 ± 0.32 | -0.185 ± 0.22 |

| Sequence | folding stability dG unfold [1] [kcal/mol] | folding stability dG unfold [2] [kcal/mol] | folding stability dG unfold [3] [kcal/mol] |
| --- | --- | --- | --- |
| SAGGSLRQLIRALFKKKGIPIEPEKVDPNWVTFKVPNKDVKIDLPDGNKIEIKPNGYVRIRIPPDDLSAGGS [r8_297_TrROS] | -0.1 ± 0.4 | -0.172 ± 0.68 | -0.354 ± 0.89 |
| SAGGSLTAEWDTSTGTVRLTFPDGSVVELPFPTSGAVVRATVDGDKVTIEVLDKDNPKVVARFTFDLGSAGG [r13_938_TrMRF] | 4.37 ± 0.19 | 3.79 ± 0.2 | 4.74 ± 0.15 |
| SAGGSLVTTEFPGVTITTDPATGVLTVEASPEEVERLIEALGPEFNPVEIRRLPDGSYLLTLPVTPPSAGGS [r8_415_JUSTAS] | 2.1 ± 0.03 | 2.13 ± 0.03 | 2.042 ± 0.02 |
| SAGGSMALVEIERPGGEGALRTVDTSNPAAVKAFVDAVPEDEPVRVYTDDPAVVELFKEAGFDEVLLESAGG [r13_476_JUSTAS] | 0.55 ± 0.096 | -0.0819 ± 0.053 | 0.775 ± 0.087 |
| SAGGSMAPDVKVEVEVFPDGLVLFRLTLPDGRPFLALAEVREDGRVKVVVFDLYPGEKVEFEIPIKSAGGSA [r2_99_TrMRF] | 3.28 ± 0.14 | 2.52 ± 0.12 | 3.7 ± 0.045 |
| SAGGSMELELEVKNPETGKTYKVKITSFDEETGEVTVEIEDEETGETKTLTFKVEPVELVEEEEEESAGGSA [r2_147_TrROS_Hall] | 3.08 ± 0.076 | 2.38 ± 0.1 | 3.28 ± 0.037 |
| SAGGSMERTVELTYTFKDKPIKITITVTTDPETGTVTVPIEIETEDEKIKEPALEKAKELAEELLASAGGSA [r2_259_JUSTAS] | 0.301 ± 0.12 | 0.133 ± 0.065 | 0.26 ± 0.13 |
| SAGGSMETRETLEERTLPNGEKVLTTTTTYPDGTVTTRTTVIHGGTSTVTTTTTPAAPVPGPAPARASAGGS [r16_523_JUSTAS] | 1.55 ± 0.085 | 0.422 ± 0.028 | 2.01 ± 0.059 |
| SAGGSMEVKVEVVKDEETKEYYVKVEIRDPKTKKTITLEYKVKEEDKEEALKKAKELAEELAKKGISAGGSA [r2_221_TrROS_Hall] | 3.48 ± 0.1 | 3.27 ± 0.14 | 3.64 ± 0.077 |
| SAGGSMGKTPDGGEVEFFEKPEENLIFAVVKHPDGSYYVAVFKKDEDKIELIDVKEVPEGEIEELASAGGSA [r2_336_TrMRF] | 1.89 ± 0.13 | 1.26 ± 0.089 | 2.07 ± 0.031 |
| SAGGSMGSKKVGEIELEVEIGDEKVKVKVTLYETESPDDSVSLTLDVDVEHPNGKKISKELFEKLFSAGGSA [r2_363_TrMRF] | 1.84 ± 0.15 | 1.15 ± 0.064 | 2.14 ± 0.033 |
| SAGGSMIFETLGSEKLIKEKAEERGLDLVEYSVEGNKFFALLKDPAGKLVLTYSDEASVKKLGLDLSKLSAG [r5_12_JUSTAS] | 0.299 ± 0.081 | -0.265 ± 0.095 | 0.523 ± 0.08 |
| SAGGSMIITRDPATGLVTVYKNGKKVKTIEVPPGNPVGVSLSYNPSPNTYTVTLTTPESPVKISNLSAGGSA [r2_399_JUSTAS] | 1.15 ± 0.06 | 0.855 ± 0.032 | 1.31 ± 0.083 |
| SAGGSMIPLTVTRYDPNSDKPVSTTPVVYDPETGTWTAYPPDGSRTTYALSLEDLIAALPSTWSVGPSAGGS [r16_543_JUSTAS] | 0.567 ± 0.044 | 0.452 ± 0.034 | 0.599 ± 0.052 |
| SAGGSMIPRLEERVLEVEVDSEEEAEKLKKELKEKIEKEHPGVEVKFELRKLPNGKYLLTITVVIPILSAGG [r13_17_JUSTAS] | 3.64 ± 0.077 | 2.89 ± 0.058 | 3.93 ± 0.041 |
